± gives the uncertainty stated by the source.
B1: MEF2-activating motif and SAP domain-containing transcriptional regulator, residues 170 to 204; numbered along this chain, Q6ZN01 (parent)
chain: LKLEELTVSELRQQLRLRGLPVSGTKSMLLERMRG

Variants of: B1
Experiment: abundance fitness (aPCA) (normalised: wild type 0, dead -1); higher = more abundant; growth selection in yeast, the domain comes from the species named
Conditions: Homo sapiens

Question: For LKLEELTPSELRQQLRLRGLPVSGTKSMLLERMRG [V8P], which abundance fitness is on record?
Answer: -0.39 ± 0.091

Question: With LKLEELTVSELRQQLRLRGLPVSGTKSMLCERMRG [L30C] as the variant, how does the abundance fitness read?
Answer: -0.197 ± 0.17

Question: With LKLEELVVSELRQQLRLRGLPVSGTKSMLLERMRG [T7V] as the variant, how does the abundance fitness read?
Answer: -1.29 ± 0.13

Question: For LKLEELTVSELRQQLRLRGLHVSGTKSMLLERMRG [P21H], which abundance fitness is on record?
Answer: -0.727 ± 0.22

Question: Which abundance fitness does the source give for LKLEELTVSERRQQLRLRGLPVSGTKSMLLERMRG [L11R] here?
Answer: -0.565 ± 0.097

Question: With LKLEELTVSELRQQLRLRGLPVSGTKFMLLERMRG [S27F] as the variant, how does the abundance fitness read?
Answer: -1.15 ± 0.27

Question: For LKLEELTVSELRQQVRLRGLPVSGTKSMLLERMRG [L15V], which abundance fitness is on record?
Answer: -0.37 ± 0.073

Question: With LKLEELTVSELRQQLGLRGLPVSGTKSMLLERMRG [R16G] as the variant, how does the abundance fitness read?
Answer: -0.081 ± 0.054

Question: For LKLEELTVSELRQFLRLRGLPVSGTKSMLLERMRG [Q14F], which abundance fitness is on record?
Answer: -0.401 ± 0.13

Question: For LKLEELTVSELRQQLRLRGLPVSGTKSNLLERMRG [M28N], which abundance fitness is on record?
Answer: -0.402 ± 0.19

Question: Which abundance fitness does the source give for LKLEELTVSELRQQLRLRGLPCSGTKSMLLERMRG [V22C] here?
Answer: -0.255 ± 0.13

Question: With LKLEELTVSELRQQLRLRGLPVSGTKSMLLERNRG [M33N] as the variant, how does the abundance fitness read?
Answer: -0.613 ± 0.34

Question: Which abundance fitness does the source give for LKLEELTVSELRQQLRLRGLPVSGTDSMLLERMRG [K26D] here?
Answer: -0.467 ± 0.32

Question: Which abundance fitness does the source give for LCLEELTVSELRQQLRLRGLPVSGTKSMLLERMRG [K2C] here?
Answer: -0.136 ± 0.07

Question: For LKLEELTVSELRQQLRLRGLPESGTKSMLLERMRG [V22E], which abundance fitness is on record?
Answer: 0.025 ± 0.17

Question: Which abundance fitness does the source give for LKLEELTVSELRQQLRLRGLPVSGTKSMLLECMRG [R32C] here?
Answer: -0.611 ± 0.13

Question: With LKLEEDTVSELRQQLRLRGLPVSGTKSMLLERMRG [L6D] as the variant, how does the abundance fitness read?
Answer: -0.356 ± 0.14

Question: With LKLEEWTVSELRQQLRLRGLPVSGTKSMLLERMRG [L6W] as the variant, how does the abundance fitness read?
Answer: -0.175 ± 0.072

Question: With LKLEELTVSEIRQQLRLRGLPVSGTKSMLLERMRG [L11I] as the variant, how does the abundance fitness read?
Answer: -0.206 ± 0.11

Question: Which abundance fitness does the source give for LKLEELTVSELRQQLRLRILPVSGTKSMLLERMRG [G19I] here?
Answer: -0.417 ± 0.19

Question: Which abundance fitness does the source give for LKLEELTVSELRQQLRLRGLPVSGTTSMLLERMRG [K26T] here?
Answer: -0.42 ± 0.097

Question: For LWLEELTVSELRQQLRLRGLPVSGTKSMLLERMRG [K2W], which abundance fitness is on record?
Answer: -0.159 ± 0.14

Question: Which abundance fitness does the source give for LKLYELTVSELRQQLRLRGLPVSGTKSMLLERMRG [E4Y] here?
Answer: -0.804 ± 0.18

Question: Which abundance fitness does the source give for LKLEELTVSELRQQLRLRGLPVSGPKSMLLERMRG [T25P] here?
Answer: -0.29 ± 0.068

Question: With LKLEELTVSELKQQLRLRGLPVSGTKSMLLERMRG [R12K] as the variant, how does the abundance fitness read?
Answer: -0.072 ± 0.09

Question: For LKLEELTVSELRQQLRLRGMPVSGTKSMLLERMRG [L20M], which abundance fitness is on record?
Answer: -0.005 ± 0.22

Question: Which abundance fitness does the source give for LRLEELTVSELRQQLRLRGLPVSGTKSMLLERMRG [K2R] here?
Answer: -0.042 ± 0.1

Question: For LKLEELTVSELRQQLRLRGLPVSGTKSMDLERMRG [L29D], which abundance fitness is on record?
Answer: -0.51 ± 0.072

Question: With LKLEELTVSELRQQLRLRGLPVSGTKHMLLERMRG [S27H] as the variant, how does the abundance fitness read?
Answer: -0.246 ± 0.091

Question: For LKLEELTVSELRQQLRLRGLPNSGTKSMLLERMRG [V22N], which abundance fitness is on record?
Answer: -0.407 ± 0.17

Question: For LKLEELTVSELRQQLRLRGLPVSGTKWMLLERMRG [S27W], which abundance fitness is on record?
Answer: -0.23 ± 0.06

Question: Which abundance fitness does the source give for LKLEELTVSELRQQLRLRGLPLSGTKSMLLERMRG [V22L] here?
Answer: -0.209 ± 0.076

Question: For LKLEELTVSELRQQLALRGLPVSGTKSMLLERMRG [R16A], which abundance fitness is on record?
Answer: 0.04 ± 0.062

Question: For LKLEELTVSELRQQLRLRGLPVSGTKSMLLEGMRG [R32G], which abundance fitness is on record?
Answer: -0.326 ± 0.067

Question: With LKLEELTVSELRQQLRLRGLPISGTKSMLLERMRG [V22I] as the variant, how does the abundance fitness read?
Answer: -0.262 ± 0.24

Question: With LKLEELTVSELQQQLRLRGLPVSGTKSMLLERMRG [R12Q] as the variant, how does the abundance fitness read?
Answer: -0.016 ± 0.097

Question: With LKLEELTVSELRQQLRLRGLPVSGTKSMFLERMRG [L29F] as the variant, how does the abundance fitness read?
Answer: -0.589 ± 0.14

Question: With LKLEELTVSELRQQLFLRGLPVSGTKSMLLERMRG [R16F] as the variant, how does the abundance fitness read?
Answer: -0.086 ± 0.26

Question: With GKLEELTVSELRQQLRLRGLPVSGTKSMLLERMRG [L1G] as the variant, how does the abundance fitness read?
Answer: -0.364 ± 0.21

Question: With LKLEELTVSELRQQLRLRGLPVSMTKSMLLERMRG [G24M] as the variant, how does the abundance fitness read?
Answer: -0.768 ± 0.13

Question: With LKLEELTVSELRQQLRLRGLPVSGTKSMPLERMRG [L29P] as the variant, how does the abundance fitness read?
Answer: -0.909 ± 0.22

Question: With LELEELTVSELRQQLRLRGLPVSGTKSMLLERMRG [K2E] as the variant, how does the abundance fitness read?
Answer: 0.007 ± 0.067

Question: Which abundance fitness does the source give for LKLEELTVSELRQQLRLRGLPVSGTKSMWLERMRG [L29W] here?
Answer: -0.594 ± 0.11

Question: With LKLEELTVSELRQQLRLRGLPVSGTKSGLLERMRG [M28G] as the variant, how does the abundance fitness read?
Answer: -0.512 ± 0.072

Question: Which abundance fitness does the source give for LKLEELTVSEARQQLRLRGLPVSGTKSMLLERMRG [L11A] here?
Answer: -0.678 ± 0.11

Question: For LKLEELTVSELRQQLRLRGLPVSGTKDMLLERMRG [S27D], which abundance fitness is on record?
Answer: 0.069 ± 0.065

Question: With LKLEELTVSELRQVLRLRGLPVSGTKSMLLERMRG [Q14V] as the variant, how does the abundance fitness read?
Answer: -0.222 ± 0.061

Question: With LKLEETTVSELRQQLRLRGLPVSGTKSMLLERMRG [L6T] as the variant, how does the abundance fitness read?
Answer: -0.632 ± 0.11

Question: Which abundance fitness does the source give for LKLEELTVSELRQQLRLRGLPVSSTKSMLLERMRG [G24S] here?
Answer: -0.817 ± 0.13

Question: With LKLEELTVSELRQQLRLRGLPVSGTKQMLLERMRG [S27Q] as the variant, how does the abundance fitness read?
Answer: 0.38 ± 0.41

Question: With LKLEELTVSELRQQLRLRGLPQSGTKSMLLERMRG [V22Q] as the variant, how does the abundance fitness read?
Answer: -0.108 ± 0.068

Question: Which abundance fitness does the source give for LKLEELTVSELRQQLRLRGLPVSWTKSMLLERMRG [G24W] here?
Answer: -0.41 ± 0.21

Question: With LKLEELTVSELRQQLRLPGLPVSGTKSMLLERMRG [R18P] as the variant, how does the abundance fitness read?
Answer: -0.336 ± 0.39

Question: With LKLEELTVSELRQQLRLRGLPVSGTKSMLLERARG [M33A] as the variant, how does the abundance fitness read?
Answer: -0.161 ± 0.08

Question: For LKLEELTVSELCQQLRLRGLPVSGTKSMLLERMRG [R12C], which abundance fitness is on record?
Answer: -0.387 ± 0.086

Question: Which abundance fitness does the source give for LKLEELTVSELRQQLRLWGLPVSGTKSMLLERMRG [R18W] here?
Answer: -0.147 ± 0.085

Question: Which abundance fitness does the source give for LKLEELTVSELRQQLRLRALPVSGTKSMLLERMRG [G19A] here?
Answer: -0.746 ± 0.08

Question: With LKLEELTVSELRQQLRLLGLPVSGTKSMLLERMRG [R18L] as the variant, how does the abundance fitness read?
Answer: 0.074 ± 0.057

Question: Which abundance fitness does the source give for LKLEELTVSELRQQLRLRGLPPSGTKSMLLERMRG [V22P] here?
Answer: -0.701 ± 0.2

Question: With LKLEELTVSELRQQLRLRGLNVSGTKSMLLERMRG [P21N] as the variant, how does the abundance fitness read?
Answer: -0.303 ± 0.13

Question: Which abundance fitness does the source give for LKLEELTVSELRQQLRLRGLPVSGTKSMLLEVMRG [R32V] here?
Answer: -0.368 ± 0.12

Question: Which abundance fitness does the source give for LKLEELTVSELRQQLELRGLPVSGTKSMLLERMRG [R16E] here?
Answer: 0.001 ± 0.078

Question: Which abundance fitness does the source give for LKLEELTVWELRQQLRLRGLPVSGTKSMLLERMRG [S9W] here?
Answer: -0.142 ± 0.06

Question: Which abundance fitness does the source give for LKLEELTVNELRQQLRLRGLPVSGTKSMLLERMRG [S9N] here?
Answer: 0.182 ± 0.19

Question: With LKLEELTVSELRQQLRLRGLPVSGMKSMLLERMRG [T25M] as the variant, how does the abundance fitness read?
Answer: -0.517 ± 0.2

Question: With LKLEELTVSELRQQLRLRGLPVSGTKSMLLYRMRG [E31Y] as the variant, how does the abundance fitness read?
Answer: -0.124 ± 0.18

Question: With LKLEELTVSELRQQLRLRGLPVSGTKLMLLERMRG [S27L] as the variant, how does the abundance fitness read?
Answer: -0.281 ± 0.063

Question: Which abundance fitness does the source give for LKLEELTVSEKRQQLRLRGLPVSGTKSMLLERMRG [L11K] here?
Answer: -0.623 ± 0.13

Question: Which abundance fitness does the source give for LKLEELTVSELRQQNRLRGLPVSGTKSMLLERMRG [L15N] here?
Answer: -0.308 ± 0.14

Question: Which abundance fitness does the source give for LKLEELTVSELRQQLRLRGLPVSGCKSMLLERMRG [T25C] here?
Answer: -0.43 ± 0.13
